The record followed here is PMC11975286, “Functional dissection of the conserved C. elegans LEM-3/ANKLE1 nuclease reveals a crucial requirement for the LEM-like and GIY-YIG domains for DNA bridge processing”.

For one data set, the target named is T1, LEM-3(241-704) (Caenorhabditis elegans, UniProt G5EGA3 241-704).
T1 sequence: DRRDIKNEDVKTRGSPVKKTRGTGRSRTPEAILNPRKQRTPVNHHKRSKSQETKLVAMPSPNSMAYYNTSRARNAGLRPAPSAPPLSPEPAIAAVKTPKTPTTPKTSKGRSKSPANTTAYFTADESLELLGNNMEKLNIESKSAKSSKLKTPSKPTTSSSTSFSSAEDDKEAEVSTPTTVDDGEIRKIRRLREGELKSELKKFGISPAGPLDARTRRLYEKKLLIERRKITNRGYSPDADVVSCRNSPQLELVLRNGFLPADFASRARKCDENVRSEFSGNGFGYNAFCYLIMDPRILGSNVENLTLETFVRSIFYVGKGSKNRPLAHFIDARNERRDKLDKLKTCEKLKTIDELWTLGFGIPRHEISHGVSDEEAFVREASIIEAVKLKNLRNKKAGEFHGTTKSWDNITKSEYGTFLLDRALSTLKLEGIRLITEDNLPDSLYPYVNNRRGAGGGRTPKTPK
Kind of data set: EMSA; no divalent metal, 100 mM Na+; 0.13 nM HJ; cooperative (Hill) fit; 10 mM Tris-HCl pH 7.5, 100 mM NaCl, 5% glycerol, 5 ng/ul poly(dI-dC), 4 C, 1 h; 8.3 nM HJ-X0-1 (0.13 nM for Kd); 6% native PAGE, 0.5x TBE, 4 C. The settings on record: protein: recombinant; tags: His-GST removed by TEV; label: 5'-Cy5 on X0-1; four-way junction of 4 strands, 1 copy each. On the technique in general: In EMSA bound probe runs differently from free probe, usually more slowly.

The target of another data set is T2, LEM-3(485-704) (Caenorhabditis elegans, UniProt G5EGA3 485-704).
T2 sequence: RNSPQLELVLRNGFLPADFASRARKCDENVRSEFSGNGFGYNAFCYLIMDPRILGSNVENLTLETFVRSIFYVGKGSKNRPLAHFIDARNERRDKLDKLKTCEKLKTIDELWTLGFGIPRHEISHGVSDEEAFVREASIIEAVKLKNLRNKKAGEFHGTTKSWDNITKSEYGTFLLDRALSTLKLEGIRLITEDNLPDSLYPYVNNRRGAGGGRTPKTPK
Kind of data set: EMSA; no divalent metal, 100 mM Na+; 10 mM Tris-HCl pH 7.5, 100 mM NaCl, 5% glycerol, 5 ng/ul poly(dI-dC), 4 C, 1 h; 8.3 nM HJ-X0-1 (0.13 nM for Kd); 6% native PAGE, 0.5x TBE, 4 C. The settings on record: protein: recombinant; tags: His-GST removed by TEV; label: 5'-Cy5 on X0-1; four-way junction of 4 strands, 1 copy each.

B1: HJ-X0-1 (immobile Holliday junction) (structured_DNA)
DNA 1: ACGCTGCCGAATTCTACCAGTGCCTTGCTAGGACATCTTTGCCCACCTGCAGGTTCACCC
DNA 2: GGGTGAACCTGCAGGTGGGCAAAGATGTCCATCTGTTGTAATCGTCAAGCTTTATGCCGT
DNA 3: ACGGCATAAAGCTTGACGATTACAACAGATCATGGAGCTGTCTAGAGGATCCGACTATCG
DNA 4: CGATAGTCGGATCCTCTAGACAGCTCCATGTAGCAAGGCACTGGTAGAATTCGGCAGCGT
A word on the Kd: it is a measure of binding affinity in units of concentration. B1: the Kd with LEM-3(241-704) was roughly 40 nM. Besides, the binding result in the data set with LEM-3(485-704) is recorded as “no binding”.
